For one substance, stoichiometry N results are on record in PMC9945959.

The assay concerns the target Full-length human NF1 isoform 2 (short isoform), recombinant (human) (UniProt P21359). In words: cryo-EM structure.

As usually defined, the stoichiometry N is the number of molecules, sites or subunits per partner or assembly. Consider “Full-length human NF1 isoform 2 (short isoform), recombinant, P21359-2 1-2818”, for which the stoichiometry N was 2.
